Experiments:
[1] = test system: CDCP1^GFP in HEY cells; experiment: Live-cell spinning-disk confocal microscopy of HEY-CDCP1^GFP cells; format: cell-based; settings: dasatinib 200 nM pre-treatment
Description: Live-cell spinning-disk confocal imaging was performed as described (Stehbens S J, et al., (2014) 16(6):561-73.) on an environmentally controlled Nikon TI inverted microscope (Nikon, New York) equipped with a Borealis-modified Yokogawa CSU-X1 confocal head (Spectral Applied Research, Ontario Canada) and a Clara cooled interline charge-coupled device (CCD) camera (Andor Technology, Belfast, United Kingdom). Dynamics of fluorescent proteins were imaged at 37° C. using a 60×1.49 NA objective (Nikon) with imaging of CDCP1^GFP internalization induced by 10D7^pH performed at ˜1 frame/sec. Image analysis and quantification was performed using Imaris 7.1 software (Bitplane, Zurich, Switzerland) (Morton J P, et al., (2010) 139(1):292-303.). Briefly, the Spots creation wizard automatically subtracted background and detected CDCP1^GFP puncta which were filtered for analysis based on threshold values above 20 for ‘quality’ defined as the intensity at the centre of the puncta, Gaussian filtered by […] (Doyon J B, et al., (2011)13(3):331-7.). Puncta were tracked over sequential frames using the Autoregressive motion particle-tracking algorithm. […] Quantification of track length during the period 0-5 min was determined from the 100 tracks with the highest velocity in each experimental group. […]

[2] = molecular target: human CUB domain-containing protein 1 (CDCP1), expressed by cells (human) (UniProt Q9H5V8); experiment: flow cytometry of TKCC10 cells, 5 µg/ml antibody, APC-conjugated anti-mouse secondary; number in the IgG column (paragraph 330 calls the numbers of the 10D7 column MFI)
[3] = molecular target: human CUB domain-containing protein 1 (CDCP1), expressed by cells (human) (UniProt Q9H5V8); experiment: flow cytometry of PANC-1 cells, 5 µg/ml antibody, APC-conjugated anti-mouse secondary; number in the IgG column (paragraph 330 calls the numbers of the 10D7 column MFI)
[4] = molecular target: human CUB domain-containing protein 1 (CDCP1), expressed by cells (human) (UniProt Q9H5V8); experiment: flow cytometry of TKCC05 cells, 5 µg/ml antibody, APC-conjugated anti-mouse secondary; number in the IgG column (paragraph 330 calls the numbers of the 10D7 column MFI)
[5] = molecular target: human CUB domain-containing protein 1 (CDCP1), expressed by cells (human) (UniProt Q9H5V8); experiment: flow cytometry of TKCC02 cells, 5 µg/ml antibody, APC-conjugated anti-mouse secondary; number in the IgG column (paragraph 330 calls the numbers of the 10D7 column MFI)
[6] = molecular target: T1, human CUB domain-containing protein 1 (CDCP1), expressed by cells (human, UniProt Q9H5V8 30-836); experiment: summary of co-IP, SEC and reducing/non-reducing Western blots
T1 construct: also called CDCP1-FL; CD318
T1 sequence: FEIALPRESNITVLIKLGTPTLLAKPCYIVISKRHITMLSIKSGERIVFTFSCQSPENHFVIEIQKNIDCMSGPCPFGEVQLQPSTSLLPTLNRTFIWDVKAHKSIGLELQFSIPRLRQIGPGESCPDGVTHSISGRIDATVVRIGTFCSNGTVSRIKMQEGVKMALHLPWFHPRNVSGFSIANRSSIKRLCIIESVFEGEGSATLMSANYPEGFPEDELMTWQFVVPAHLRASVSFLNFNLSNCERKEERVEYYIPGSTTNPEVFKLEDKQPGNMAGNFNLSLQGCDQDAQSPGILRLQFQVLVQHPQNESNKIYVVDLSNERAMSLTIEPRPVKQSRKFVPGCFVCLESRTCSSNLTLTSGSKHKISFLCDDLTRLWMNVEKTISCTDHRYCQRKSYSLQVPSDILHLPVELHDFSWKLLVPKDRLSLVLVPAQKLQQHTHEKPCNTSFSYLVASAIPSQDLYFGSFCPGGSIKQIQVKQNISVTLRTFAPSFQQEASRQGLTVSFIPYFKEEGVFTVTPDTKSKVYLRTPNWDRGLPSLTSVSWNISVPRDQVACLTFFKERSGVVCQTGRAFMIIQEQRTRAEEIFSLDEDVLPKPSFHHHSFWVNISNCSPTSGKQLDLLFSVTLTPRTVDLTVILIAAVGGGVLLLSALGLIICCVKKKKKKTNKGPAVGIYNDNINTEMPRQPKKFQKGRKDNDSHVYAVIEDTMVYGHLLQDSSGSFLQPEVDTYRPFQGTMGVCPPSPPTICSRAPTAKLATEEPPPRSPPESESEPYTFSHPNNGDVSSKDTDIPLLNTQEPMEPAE

[7] = molecular target: T2, recombinant CDCP1-ECD, spanning residue 30 to 665 (human, UniProt Q9H5V8 30-665); experiment: SPR, Biacore T200, antibody captured via Protein G, CDCP1-ECD analyte; reference 41-2
T2 construct: Recombinant protein described in Chen Y et al. 2017; also called CDCP1 extracellular domain (ECD)
T2 sequence: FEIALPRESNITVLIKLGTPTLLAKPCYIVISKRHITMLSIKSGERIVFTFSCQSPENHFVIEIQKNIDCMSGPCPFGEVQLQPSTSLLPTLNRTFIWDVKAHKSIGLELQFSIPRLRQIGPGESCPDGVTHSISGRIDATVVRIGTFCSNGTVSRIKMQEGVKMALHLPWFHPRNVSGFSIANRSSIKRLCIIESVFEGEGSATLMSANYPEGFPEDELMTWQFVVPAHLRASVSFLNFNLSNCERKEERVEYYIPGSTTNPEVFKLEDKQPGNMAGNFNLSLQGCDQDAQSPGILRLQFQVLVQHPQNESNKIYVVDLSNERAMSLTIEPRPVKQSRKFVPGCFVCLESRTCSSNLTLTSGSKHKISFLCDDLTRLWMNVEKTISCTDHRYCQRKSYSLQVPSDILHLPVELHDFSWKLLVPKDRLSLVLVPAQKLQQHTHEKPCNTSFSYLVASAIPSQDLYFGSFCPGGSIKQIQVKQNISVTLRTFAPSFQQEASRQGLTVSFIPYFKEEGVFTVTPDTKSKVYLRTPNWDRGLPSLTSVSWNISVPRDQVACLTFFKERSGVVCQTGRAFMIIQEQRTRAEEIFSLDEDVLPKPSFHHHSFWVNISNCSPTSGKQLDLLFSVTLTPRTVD

[8] = molecular target: T2, recombinant CDCP1-ECD, spanning residue …; experiment: SPR (Biacore T200), antibody captured via Protein G on a CM5 chip, CDCP1-ECD 1.56 to 50 nM as analyte, 25 °C
[9] = molecular target: T2, recombinant CDCP1-ECD, spanning residue …; experiment: SPR, Biacore T200, antibody captured via Protein G on CM5 chip, CDCP1-ECD analyte 50 to 1.56 nM, 25 C
[10] = test system: TKCC05 cells; experiment: Confocal microscopy of TKCC05 cells treated with 10D7-Qdot; format: cell-based, human
Description: Labelling of antibody 10D7 with fluorescent Qdot 625 probes was performed using a kit supplied by the manufacturer. TKCC05 cells were grown on poly-Lysine treated […] chamber slides (DKSH, Hallam, Australia) until 70% confluent then incubated with 10D7-Qdot. After 5, 10 and 120 min cells were fixed with 4% paraformaldehyde for 15 min at room temperature (RT), washed with PBS, then incubated with DAPI to highlight cell nuclei and Alexa Fluor 488 phalloidin to highlight cell cytoplasms (30 min at RT). Imaging was performed on a Nikon/Spectral Spinning Disc Confocal microscope.
To assess the impact of antibody 10D7 on CDCP1 expressed by PDAC, the inventors performed confocal microscopy and western blot analysis of patient-derived PDAC cells treated with this antibody for defined periods of time. […] Western blot analysis confirmed that 10D7 induces rapid transient tyrosine phosphorylation of CDCP1-ATF in TKCC05 cells and CDCP1-FL in TKCC10 cells, while Src was also transiently tyrosine phosphorylated in these cells in response to 10D7 (FIG. 11B). […] The data are consistent with CDCP1-ATF remaining tethered to the plasma membrane likely via CDCP1-CTF and indicate that intact and cleaved CDCP1 can be functionally targeted with antibody 10D7 in PDAC cells. Thus, antibody 10D7 is effective at targeting uncleaved as well as cleaved CDCP1 that are present on the surface of cancer cells.

**Q.** `Cc1nc(Nc2ncc(C(=O)Nc3c(C)cccc3Cl)s2)cc(N2CCN(CCO)CC2)n1` [dasatinib] was tested. Which “reduction of CDCP1^GFP track length in response to 10D7” value [1] did it give?
**A.** The value was “about 80%”.

**Q.** For IgG (antibody), which MFI [2] is on record?
**A.** Its MFI is 133.

**Q.** What about the MFI [3] of the same molecule?
**A.** The MFI was 202.

**Q.** What about the MFI [4] of the same molecule?
**A.** Its MFI is 234.

**Q.** What about the MFI [5] of the same molecule?
**A.** Its MFI is 216.

B1: CDCP1 amino-terminal fragment (CDCP1-ATF), 65 kDa (receptor)
chain: FEIALPRESNITVLIKLGTPTLLAKPCYIVISKRHITMLSIKSGERIVFTFSCQSPENHFVIEIQKNIDCMSGPCPFGEVQLQPSTSLLPTLNRTFIWDVKAHKSIGLELQFSIPRLRQIGPGESCPDGVTHSISGRIDATVVRIGTFCSNGTVSRIKMQEGVKMALHLPWFHPRNVSGFSIANRSSIKRLCIIESVFEGEGSATLMSANYPEGFPEDELMTWQFVVPAHLRASVSFLNFNLSNCERKEERVEYYIPGSTTNPEVFKLEDKQPGNMAGNFNLSLQGCDQDAQSPGILRLQFQVLVQHPQNESNKIYVVDLSNERAMSLTIEPRPVKQSR
notes: Product of proteolytic cleavage of CDCP1
**Q.** Does B1 bind [6]?
**A.** Result: binds

B2: anti-CDCP1 mouse monoclonal antibody 10D7 (antibody, V domains shown)
VH: EVQLQQFGAELVKPGASVKISCKASGYSFSDFNIEWLKQSHGKSLEWIGDINPNYDSTNYNQKFKGRATLTVDKSSSTAYMEVRSLTSEDTAVYYCARLGYGYAMDYWGQGTSVTVSS
VL: NIVMTQSPQSMSMSVGERVTLSCKASENVGAYVSWFQQKPDQSPKLLILAASNRYTGVPARFIGSGSATDFTLTISSVQAEDLADYHCGQSYTYPYTFGGGTKLEIKR
notes: also called mAb 10D7; mouse 10D7 antibody
**Q.** How did the “fold stronger KD than 41-2” value [7] turn out when B2 was run?
**A.** The value was 2.7 fold.

**Q.** And the koff [8]?
**A.** The koff was 0.000441 s⁻¹.

**Q.** What about the kon [8] of the same molecule?
**A.** Its kon is 1e+06 M⁻¹ s⁻¹.

**Q.** What about the Kd [9] of the same molecule?
**A.** The Kd was 0.44 nM.

B3: 10D7-Qdot (conjugate)
VH: EVQLQQFGAELVKPGASVKISCKASGYSFSDFNIEWLKQSHGKSLEWIGDINPNYDSTNYNQKFKGRATLTVDKSSSTAYMEVRSLTSEDTAVYYCARLGYGYAMDYWGQGTSVTVSS
VL: NIVMTQSPQSMSMSVGERVTLSCKASENVGAYVSWFQQKPDQSPKLLILAASNRYTGVPARFIGSGSATDFTLTISSVQAEDLADYHCGQSYTYPYTFGGGTKLEIKRADAAPTVS
**Q.** B3 was tested. Which “time until apparent on the plasma membrane” value [10] did it give?
**A.** The value was no more than 5 min.

**Q.** What about the internalization of antibody ([10]; after 120 min) of the same molecule?
**A.** The internalization of antibody was “largely internalized”.

Reference: patent US20220389113A1, “BINDING PROTEINS TO CUB DOMAIN-CONTAINING PROTEIN (CDCP1)” (COMMONWEALTH SCIENTIFIC AND INDUSTRIAL RESEARCH ORGANISATION, priority 2019, published 2022)
